In this assay the target is Recombinant human PDGF-B (human) (UniProt P01127).

The results in this text go back to patent publication US20250388637A1.

Consider MBP-GCN4-Prodomain, for which the inhibition of PDGF-B stimulated PDGFR-β phosphorylation, BHK-21/PDGFR-β cells stood at 16%.
